Reference: article PMC6467934, “Cell-Free and Yeast-Based Production of the Malarial Lactate Transporter, PfFNT, Delivers Comparable Yield and Protein Quality” (Frontiers in Pharmacology, 2019)

Molecular target: the molecule itself
Test: negative-stain transmission electron microscopy with class sums; purified, detergent-solubilized PfFNT (yeast-produced in DM, cell-free in Brij 78); uranyl acetate stain; reference-free alignment without any symmetry imposed

Protein	stoichiometry N
Plasmodium falciparum lactate transporter PfFNT, produced in Pichia pastoris yeast (natural protein, UniProt O77389 1-309, looked up, PfFNT, lactate transporter (formate-nitrite transporter family) of Plasmodium falciparum; monomer printed as 30 kDa, pentamer 150 kDa; Homopentamer; also called cell-based PfFNT; yeast-produced PfFNT; source: P. pastoris (PichiaPink), fermenter culture; membranes solubilized with LDAO, purified (Ni-NTA, size exclusion) in DM; not shown: His10, C-terminal, kept) MPPNNSKYVLDPVSIKSVCGGEESYIRCVEYGKKKAHYSNLNLLAKAILAGMFVGLCAHASGIAGGLFYYHKLREIVGASMSVFVYGFTFPIAFMCIICTGSDLFTGNTLAVTMALYEKKVKLLDYLRVMTISLFGNYVGAVSFAFFVSYLSGAFTNVHAVEKNHFFQFLNDIAEKKVHHTFVECVSLAVGCNIFVCLAVYFVLTLKDGAGYVFSVFFAVYAFAIAGYEHIIANIYTLNIALMVNTKITVYQAYIKNLLPTLLGNYIAGAIVLGLPLYFIYKEHYYNFERSKRDNNDAQMKSLSIELRN	5
Plasmodium falciparum lactate transporter PfFNT, produced cell-free in an E. coli S30 extract (natural protein, UniProt O77389 1-309, looked up, PfFNT, lactate transporter (formate-nitrite transporter family) of Plasmodium falciparum; codon-optimized open reading frame in pIVEX2.3; monomer printed as 30 kDa, pentamer 150 kDa; Homopentamer; A factor Xa digestion site lies between PfFNT and the C-terminal His10-tag; no cleavage is reported; also called cell-free PfFNT; cell-free produced PfFNT; source: E. coli S30 extract cell-free system …) MPPNNSKYVLDPVSIKSVCGGEESYIRCVEYGKKKAHYSNLNLLAKAILAGMFVGLCAHASGIAGGLFYYHKLREIVGASMSVFVYGFTFPIAFMCIICTGSDLFTGNTLAVTMALYEKKVKLLDYLRVMTISLFGNYVGAVSFAFFVSYLSGAFTNVHAVEKNHFFQFLNDIAEKKVHHTFVECVSLAVGCNIFVCLAVYFVLTLKDGAGYVFSVFFAVYAFAIAGYEHIIANIYTLNIALMVNTKITVYQAYIKNLLPTLLGNYIAGAIVLGLPLYFIYKEHYYNFERSKRDNNDAQMKSLSIELRN	5
